Assay results reported in patent US20260191907A1.

Key:
[1] = target: Recombinant FGFR4 (G&P Biosciences) (human) (UniProt P22455); assay: SPR (BIAcore T200), single cycle kinetics, FGFR4 amine-immobilised (12'000 RU), negative control nanobody as analyte, heterogeneous ligand model, component 2 (KD2)
[2] = target: Recombinant FGFR4 (G&P Biosciences) (human) (UniProt P22455); assay: SPR (BIAcore T200), single cycle kinetics, FGFR4 amine-immobilised (12'000 RU), negative control nanobody as analyte, heterogeneous ligand model, component 2 (koff2)
[3] = target: FGFR4 expressed on the surface of RMS cells (Rh4-FR4 wt, Rh30) (human) (UniProt P22455); assay: flow cytometry, recombinant nanobody at 30 µg/ml on Rh4-FR4 wt cells, anti-6xHis-FITC detection; equals the background of the secondary antibody alone
FGFR4 expressed on the surface of RMS cells (Rh4-FR4 wt, Rh30) (human), sequence (P22455 22-802 limits assumed): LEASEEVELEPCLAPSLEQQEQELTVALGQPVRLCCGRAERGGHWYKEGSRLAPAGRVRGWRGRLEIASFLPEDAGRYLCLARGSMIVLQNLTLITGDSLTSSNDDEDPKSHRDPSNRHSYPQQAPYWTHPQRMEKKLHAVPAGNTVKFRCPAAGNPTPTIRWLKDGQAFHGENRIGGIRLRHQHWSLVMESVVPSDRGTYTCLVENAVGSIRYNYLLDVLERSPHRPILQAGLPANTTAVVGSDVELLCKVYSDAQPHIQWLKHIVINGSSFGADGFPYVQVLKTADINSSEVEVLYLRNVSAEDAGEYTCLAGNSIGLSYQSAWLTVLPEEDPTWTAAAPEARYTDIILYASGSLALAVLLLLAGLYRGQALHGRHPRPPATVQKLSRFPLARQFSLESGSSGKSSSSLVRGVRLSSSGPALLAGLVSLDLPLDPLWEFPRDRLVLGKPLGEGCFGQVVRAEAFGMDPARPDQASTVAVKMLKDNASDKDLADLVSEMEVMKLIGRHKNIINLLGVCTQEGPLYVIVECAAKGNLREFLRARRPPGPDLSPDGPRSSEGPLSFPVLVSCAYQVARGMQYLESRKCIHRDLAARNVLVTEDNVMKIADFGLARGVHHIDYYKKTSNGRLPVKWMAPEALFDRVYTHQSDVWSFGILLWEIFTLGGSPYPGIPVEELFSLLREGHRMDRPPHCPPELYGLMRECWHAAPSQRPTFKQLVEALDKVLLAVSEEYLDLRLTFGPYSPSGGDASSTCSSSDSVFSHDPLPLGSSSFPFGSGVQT

[4] = target: Recombinant FGFR4 (G&P Biosciences) (human) (UniProt P22455); assay: SPR (BIAcore T200), single cycle kinetics, FGFR4 amine-immobilised (12'000 RU), negative control nanobody as analyte, heterogeneous ligand model, component 1 (kon1)
[5] = target: Recombinant FGFR4 (G&P Biosciences) (human) (UniProt P22455); assay: SPR (BIAcore T200), single cycle kinetics, FGFR4 amine-immobilised (12'000 RU), negative control nanobody as analyte, heterogeneous ligand model, component 1 (KD1)
[6] = target: Recombinant FGFR4 (G&P Biosciences) (human) (UniProt P22455); assay: SPR (BIAcore T200), single cycle kinetics, FGFR4 amine-immobilised (12'000 RU), negative control nanobody as analyte, heterogeneous ligand model, component 1 (koff1)
[7] = target: Recombinant FGFR4 (G&P Biosciences) (human) (UniProt P22455); assay: SPR (BIAcore T200), single cycle kinetics, FGFR4 amine-immobilised (12'000 RU), negative control nanobody as analyte, heterogeneous ligand model, component 2 (kon2)

Recombinant FGFR4 (G&P Biosciences) (human), sequence (P22455 22-369 limits assumed): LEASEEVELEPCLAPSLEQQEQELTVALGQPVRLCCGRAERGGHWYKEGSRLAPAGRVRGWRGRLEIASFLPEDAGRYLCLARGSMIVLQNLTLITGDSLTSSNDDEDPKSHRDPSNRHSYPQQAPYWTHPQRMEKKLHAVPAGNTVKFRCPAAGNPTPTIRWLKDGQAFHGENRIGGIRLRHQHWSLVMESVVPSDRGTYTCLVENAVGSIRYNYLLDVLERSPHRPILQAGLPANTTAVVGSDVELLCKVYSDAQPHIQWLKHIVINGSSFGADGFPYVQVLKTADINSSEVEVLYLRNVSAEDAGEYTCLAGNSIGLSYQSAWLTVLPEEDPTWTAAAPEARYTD

Substance: anti-mCherry nanobody (negative control) (VHH)
- Kd [1]: 2.18 µM
- koff [2]: 0.00505 s⁻¹
- median fluorescence intensity (MFI) [3]: 200 MFI
- kon [4]: 2600 M⁻¹ s⁻¹
- Kd [5]: 1.96 µM
- koff [6]: 0.00511 s⁻¹
- kon [7]: 2320 M⁻¹ s⁻¹
